The text below walks through data of article PMC3627587.

Like-named read-outs stand apart in the source and are kept apart here.

Data set [1] has as its target T1, sIHF (Streptomyces coelicolor, UniProt Q9KXR9 1-107).
T1 sequence: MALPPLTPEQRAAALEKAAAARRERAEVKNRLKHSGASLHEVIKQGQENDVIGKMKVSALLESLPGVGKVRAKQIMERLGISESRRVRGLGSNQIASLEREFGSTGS
The experiment in a line: EMSA.

Data set [2] concerns the target T1, sIHF. The experiment in a line: EMSA. This is another data set of the same source.

B1: 60-bp dsDNA (dsDNA)
DNA 1: CGTACGCGTCGCCACGGCGGCGGCATCGTCCACGAGAACACCCGCCACACCACCCGCTTC
DNA 2: GAAGCGGGTGGTGTGGCGGGTGTTCTCGTGGACGATGCCGCCGCCGTGGCGACGCGTACG
Turning to B1, the binding result with sIHF [1] is listed as “binds”.

B2: 43-bp dsDNA (dsDNA)
DNA 1: ACCAGGTGGTTGCCGATCACCACGAAGCGGGTGGTGTGGCGGG
DNA 2: CCCGCCACACCACCCGCTTCGTGGTGATCGGCAACCACCTGGT
Consider B2, for which the binding result with sIHF [1] is “binds”.

B3: 19-bp duplex (20bp OH1/OH2) (dsDNA)
DNA 1: GAGGGAGTGCGTGGGTCTGA
DNA 2: CTCAGACCCACGCACTCCCT
B3: in the data set with sIHF [2], the binding result is on record as “binds”.
